The values that follow come from patent US20210253697A1.

Test [1] concerns the target human TREM-1 on cells (BWZ/hTREM-1 reporter cells, PBMCs, macrophages, neutrophils, monocytes, synovial tissue cells) (human) (UniProt Q9NP99). As to the kind of experiment: cell-based or functional assay.
The target in test [2] is cynomolgus TREM-1 (cTREM-1 protein, SPR analyte of Examples 9 and 11) (cynomolgus monkey). The test is described as follows: SPR, mAb captured, cTREM-1 analyte (Example 11). Background: SPR reads the build-up and loss of mass on a sensor chip optically.
Test [3] addresses T1, cynomolgus monkey TREM-1 on cells (reporter cells, PBMCs, macrophages) (cynomolgus monkey).
T1 sequence: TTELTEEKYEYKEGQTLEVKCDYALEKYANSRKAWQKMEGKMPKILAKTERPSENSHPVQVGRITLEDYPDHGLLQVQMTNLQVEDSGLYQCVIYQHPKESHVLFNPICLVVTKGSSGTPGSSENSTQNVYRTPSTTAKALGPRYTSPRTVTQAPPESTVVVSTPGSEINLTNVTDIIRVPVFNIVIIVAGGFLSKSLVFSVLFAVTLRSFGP
The test is described as follows: cell-based or functional assay.

Test [4] deals with human TREM-1 (hTREM-1 protein, SPR analyte of Examples 9 and 11) (human) (UniProt Q9NP99). The test is described as follows: SPR, mAb captured, hTREM-1 analyte (Example 11).
human TREM-1 (hTREM-1 protein, SPR analyte of Examples 9 and 11) (human), sequence (Q9NP99 21-200 limits assumed): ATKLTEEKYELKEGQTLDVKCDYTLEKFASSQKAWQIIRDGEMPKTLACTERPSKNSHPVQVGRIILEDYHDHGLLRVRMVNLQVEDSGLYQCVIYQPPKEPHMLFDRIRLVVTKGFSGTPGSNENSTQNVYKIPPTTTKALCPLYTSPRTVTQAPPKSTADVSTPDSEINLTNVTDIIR

human PGLYRP1, sequence (O75594 22-196 limits assumed): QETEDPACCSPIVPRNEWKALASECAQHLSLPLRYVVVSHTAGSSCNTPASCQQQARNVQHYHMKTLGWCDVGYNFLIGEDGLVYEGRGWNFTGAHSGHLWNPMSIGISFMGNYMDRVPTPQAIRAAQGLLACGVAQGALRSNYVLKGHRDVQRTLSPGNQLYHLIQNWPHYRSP
human TREM-1 on cells (BWZ/hTREM-1 reporter cells, PBMCs, macrophages, neutrophils, monocytes, synovial tissue cells) (human), sequence (Q9NP99 21-234 limits assumed): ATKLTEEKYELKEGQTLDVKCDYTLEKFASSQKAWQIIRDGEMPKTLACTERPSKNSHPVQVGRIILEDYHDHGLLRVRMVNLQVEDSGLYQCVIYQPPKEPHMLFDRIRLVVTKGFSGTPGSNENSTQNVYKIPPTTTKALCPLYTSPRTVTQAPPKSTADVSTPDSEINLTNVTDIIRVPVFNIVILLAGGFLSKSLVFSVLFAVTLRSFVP

In test [1], “MAB1278 (R&D Systems, cat. no. MAB1278) (antibody)” yielded a BWZ/hTREM-1 reporter signal, RA synovial fluid, mAb 0.1 ug/ml, assay 1 of 829000; a BWZ/hTREM-1 reporter signal, RA synovial fluid, mAb 0.1 ug/ml, assay 2 of 691000; a BWZ/hTREM-1 reporter signal, RA synovial fluid, mAb 1 ug/ml, assay 1 of 1.19e+06; a BWZ/hTREM-1 reporter signal, RA synovial fluid, mAb 1 ug/ml, assay 2 of 1.02e+06. In test [1], the BWZ/hTREM-1 reporter signal, RA synovial fluid, mAb 10 ug/ml, assay 1 is 1.08e+06; the BWZ/hTREM-1 reporter signal, RA synovial fluid, mAb 10 ug/ml, assay 2 was 1.05e+06; the IL-6, M2 macrophages on platebound mAb 2 µg/ml, Avg was determined as 412 pg/mL; the IL-6, M2 macrophages on platebound mAb 6 µg/ml, Avg amounted to 877 pg/mL. In test [1], the IL-6, M2 macrophages on platebound mAb 20 µg/ml, Avg worked out at 1350 pg/mL; the Luminescence × 10E6, BWZ/hTREM-1 reporter cells + activated neutrophils was found to be 1e+07 luminescence; the TNFa, M2 macrophages on platebound mAb 2 µg/ml, Avg was determined as 2000 pg/mL; the TNFa, M2 macrophages on platebound mAb 6 µg/ml, Avg came out at 6450 pg/mL. Besides, in test [1], the TNFa, M2 macrophages on platebound mAb 20 µg/ml, Avg stood at 7750 pg/mL; the induction of NFAT-driven LacZ production, 1-10 µg/ml plate bound antibody was found to be 40 fold; the induction of reporter luminescence, platebound antibody (FIG. 2) came to 32 fold; the normalised reporter signal, antibody at 1 µg/ml (FIG. 3) was greater than 1.

For orientation: Kd means the constant that tells how readily two partners part at equilibrium. As to “TREM-26 (Biolegend, cat. nos. 314902 and 314907) (antibody)”, in test [2], the Kd turned out to be 4 nM. Further, in test [1], the % remaining activity at 0.003 µg/ml, BWZ/hTREM-1 reporter assay is 100%; the % remaining activity at 0.03 µg/ml, BWZ/hTREM-1 reporter assay turned out to be 124%; the % remaining activity at 0.3 µg/ml, BWZ/hTREM-1 reporter assay came to 108%; the Luminescence × 10E6, BWZ/hTREM-1 reporter cells + activated neutrophils was 9.9e+06 luminescence. The substance also yielded a normalised reporter signal, antibody at 1 µg/ml (FIG. 3) in test [1] greater than 1. In test [3], the % remaining cyno TREM-1 activity at 0.74 ug/ml, reporter assay is 104% and the % remaining cyno TREM-1 activity at 20 ug/ml, reporter assay turned out to be 87.7%. Moreover, in test [4], the Kd was 0.9 nM.

For the substance “Sigma #SAB1405121 (clone 3F5) (antibody)”, in test [1], the % remaining activity at 0.003 µg/ml, BWZ/hTREM-1 reporter assay turned out to be 104%; the % remaining activity at 0.03 µg/ml, BWZ/hTREM-1 reporter assay came to 101%; the % remaining activity at 0.3 µg/ml, BWZ/hTREM-1 reporter assay was 97%.

Turning to “SC98Z12 (Santa Cruz Biotechnology, sc-80394, clone 98Z12) (antibody)”, in test [1], the % remaining activity at 0.003 µg/ml, BWZ/hTREM-1 reporter assay came to 120%; the % remaining activity at 0.03 µg/ml, BWZ/hTREM-1 reporter assay worked out at 134%; the % remaining activity at 0.3 µg/ml, BWZ/hTREM-1 reporter assay stood at 131%. The same substance returned an equilibrium dissociation constant (Kd) in test [4] of 30 nM.

Consider “TREM-37 (Biolegend, cat. no. 316102) (antibody)”, for which, in test [1], the % remaining activity at 0.003 µg/ml, BWZ/hTREM-1 reporter assay was determined as 98%; the % remaining activity at 0.03 µg/ml, BWZ/hTREM-1 reporter assay was 103%; the % remaining activity at 0.3 µg/ml, BWZ/hTREM-1 reporter assay was found to be 90%; the Luminescence × 10E6, BWZ/hTREM-1 reporter cells + activated neutrophils stood at 6.1e+06 luminescence. This substance also returned a normalised reporter signal, antibody at 1 µg/ml (FIG. 3) in test [1] greater than 1. The Kd in test [4] turned out to be 0.8 nM.

Turning to “type II PGLYRP1 on transiently transfected HEK cells (ligand)”, in test [1], the TNF-a release, RA synovial tissue cells, IgG4 + Type II cells, 1 × 10^4 HEK cells is 95 pg/mL; the TNF-a release, RA synovial tissue cells, IgG4 + Type II cells, 1 × 10^5 HEK cells turned out to be 121 pg/mL; the TNF-a release, RA synovial tissue cells, IgG4 + Type II cells, 3 × 10^3 HEK cells was found to be 54.6 pg/mL; the TNF-a release, RA synovial tissue cells, IgG4 + Type II cells, 3 × 10^3 HEK cells (second column so headed) is 57.9 pg/mL. In test [1], the TNF-a release, RA synovial tissue cells, IgG4 + Type II cells, 3 × 10^4 HEK cells came out at 114 pg/mL.

Consider “human PGLYRP1 (from UniProt O75594 22-196) (ligand)”, for which, in test [1], the GM-CSF, RA synovial tissue cells, PGN + PGLYRP1 turned out to be 616 pg/mL; the IL-1beta, RA synovial tissue cells, PGN + PGLYRP1 turned out to be 3770 pg/mL; the IL-6, RA synovial tissue cells, PGN + PGLYRP1 came out at 4190 pg/mL; the IL-8, RA synovial tissue cells, PGN + PGLYRP1 is 5510 pg/mL. Moreover, in test [1], the MCP-1, RA synovial tissue cells, PGN + PGLYRP1 worked out at 471 pg/mL; the MIP-1beta, RA synovial tissue cells, PGN + PGLYRP1 stood at 4400 pg/mL; the TNFa, normoxic M2 macrophages, PGN-BS + PGLYRP1, Donor 1 Avg stood at 728 pg/mL; the TNFa, normoxic M2 macrophages, PGN-BS + PGLYRP1, Donor 2 Avg came out at 771 pg/mL. For the same substance, in test [1], the TNFalpha, RA synovial tissue cells, PGN + PGLYRP1 came to 1440 pg/mL. Further, in test [3], the TNF-α, cyno M2 macrophages, PGN + PGRP-S, Donor 1 Avg was 295 pg/mL and the TNF-α, cyno M2 macrophages, PGN + PGRP-S, Donor 2 Avg amounted to 307 pg/mL.

As to “Sigma #WH0054210M4 (clone 2E2) (antibody)”, in test [1], the % remaining activity at 0.003 µg/ml, BWZ/hTREM-1 reporter assay was 98%; the % remaining activity at 0.03 µg/ml, BWZ/hTREM-1 reporter assay worked out at 104%; the % remaining activity at 0.3 µg/ml, BWZ/hTREM-1 reporter assay worked out at 86%. In test [4], this substance registered a Kd of 20 nM.
